US20050003401, “Pfu replication accessory factors and methods of use” (Stratagene, published 2005)

How the values were obtained:
[1] = target: SSB (single-stranded DNA binding protein) (Escherichia coli, UniProt P0AGE0 P0AGE0:2-178); assay: EMSA; TE buffer; 95 C 10 min then 72 C 2 min; settings: tags: Stratagene Perfect Match; chain copies: 4
Experimental: (§1) 50 ng of a 38-mer oligo was incubated with E. coli SSB (lane 1), water (lane 2), or P. furiosus RFA (lanes 3-7) in TE buffer (lanes 1-3), 1×cloned Pfu buffer (lane 4), 50 mM Tris pH 8.5, 25 mM KCl, 2 mM MgCl₂ (lane 5), 50 mM Tris pH 8.5, 25 mM KCl, 5 mM MgCl₂ (lane 6), or 50 mM Tris pH 8.5, 25 mM KCl, 2 mM ZnCl₂ (lane 7). Samples were incubated at 95° C. for 10 minutes, followed by 72° C. for 2 minutes prior to loading on a 4-20% acrylamide gradient gel in 1×TBE buffer. Bands were visualized by SYBR green staining and UV illumination.
(§2) To assess function, P. furiosus RFA was tested for single-stranded DNA binding activity in a gel shift assay (FIG. 18). […] The degree of migration of the oligo is related to the mass of the protein-DNA complex and the formation of protein multimers. E. coli SSB is known to form tetramers, but it is presently unknown whether P. furiosus RFA produces multimers as well.

[2] = target: T1, RFA (replication factor A) (Pyrococcus furiosus); assay: EMSA; partial shift; 95 C 10 min then 72 C 2 min; settings: tags: N-terminal CBP
T1 chain: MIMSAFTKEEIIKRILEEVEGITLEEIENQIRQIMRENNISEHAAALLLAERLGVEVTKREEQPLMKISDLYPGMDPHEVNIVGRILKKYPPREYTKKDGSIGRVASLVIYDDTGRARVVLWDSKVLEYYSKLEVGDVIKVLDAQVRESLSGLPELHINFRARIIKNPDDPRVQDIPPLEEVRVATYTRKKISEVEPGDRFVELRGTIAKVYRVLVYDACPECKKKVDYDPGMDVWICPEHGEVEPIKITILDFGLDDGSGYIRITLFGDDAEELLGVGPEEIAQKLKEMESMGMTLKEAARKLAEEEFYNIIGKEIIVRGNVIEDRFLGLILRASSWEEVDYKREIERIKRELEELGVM
Experimental: as §1, §2

SSB (single-stranded DNA binding protein), sequence (P0AGE0 2-178, one chain of several): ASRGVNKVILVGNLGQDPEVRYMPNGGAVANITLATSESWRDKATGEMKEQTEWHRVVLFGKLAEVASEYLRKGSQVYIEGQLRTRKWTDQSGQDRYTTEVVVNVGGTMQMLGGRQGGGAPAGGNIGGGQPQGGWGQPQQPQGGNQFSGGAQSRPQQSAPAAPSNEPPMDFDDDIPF

GGTTTTCCCAGTCACGACGTTGTAAAACGACGGCCAGT (ssDNA) [38-mer oligo]
binding result [1]: binds | binding result [2]: binds
